Assay results as given in US11352401.

Target: HLA-A*01 (human)
Experiment: UV peptide-exchange ELISA; ++++ = yield >75%
Settings: remark: other sources report otherwise

- peptide exchange yield: > 75%
Binder: NTDNNLAVY [… (SEQ ID NO: 164)]
